Data on 1 protein can be found in PMC4028250, “β1,6 GlcNAc Branches-Modified PTPRT Attenuates Its Activity and Promotes Cell Migration by STAT3 Pathway” (PLoS ONE, 2014).

As usually defined, the stoichiometry N is the number of molecules, sites or subunits per partner or assembly.

The series concerns the molecule itself. Nature of the series: cross-linking; Mock-7721, GnT-V-7721, Mock-HT29 and GnT-V-HT29 cells grown to confluence, cell-surface proteins cross-linked with 3 mM BS3 for 2 hours at 4°C (on ice), stopped with 20 mM Tris-Cl, SDS lysis, immunoblot for PTPRT; dimer and monomer bands quantified with Image J. Background: In western blotting, separated proteins are transferred to a membrane and probed.

B1: receptor protein tyrosine phosphatase rho (PTPRT) (receptor, human (endogenous in SMMC-7721 and HT29), UniProt O14522 26-1441, looked up)
chain: QSAAGGCSFDEHYSNCGYSVALGTNGFTWEQINTWEKPMLDQAVPTGSFMMVNSSGRASGQKAHLLLPTLKENDTHCIDFHYYFSSRDRSSPGALNVYVKVNGGPQGNPVWNVSGVVTEGWVKAELAISTFWPHFYQVIFESVSLKGHPGYIAVDEVRVLAHPCRKAPHFLRLQNVEVNVGQNATFQCIAGGKWSQHDKLWLQQWNGRDTALMVTRVVNHRRFSATVSVADTAQRSVSKYRCVIRSDGGSGVSNYAELIVKEPPTPIAPPELLAVGATYLWIKPNANSIIGDGPIILKEVEYRTTTGTWAETHIVDSPNYKLWHLDPDVEYEIRVLLTRPGEGGTGPPGPPLTTRTKCADPVHGPQNVEIVDIRARQLTLQWEPFGYAVTRCHSYNLTVQYQYVFNQQQYEAEEVIQTSSHYTLRGLRPFMTIRLRLLLSNPEGRMESEELVVQTEEDVPGAVPLESIQGGPFEEKIYIQWKPPNETNGVITLYEINYKAVGSLDPSADLSSQRGKVFKLRNETHHLFVGLYPGTTYSFTIKASTAKGFGPPVTTRIATKISAPSMPEYDTDTPLNETDTTITVMLKPAQSRGAPVSVYQLVVKEERLQKSRRAADIIECFSVPVSYRNASSLDSLHYFAAELKPANLPVTQPFTVGDNKTYNGYWNPPLSPLKSYSIYFQALSKANGETKINCVRLATKGASTQNSNTVEPEKQVDNTVKMAGVIAGLLMFIIILLGVMLTIKRRRNAYSYSYYLKLAKKQKETQSGAQREMGPVASADKPTTKLSASRNDEGFSSSSQDVNGFTDGSRGELSQPTLTIQTHPYRTCDPVEMSYPRDQFQPAIRVADLLQHITQMKRGQGYGFKEEYEALPEGQTASWDTAKEDENRNKNRYGNIISYDHSRVRLLVLDGDPHSDYINANYIDGYHRPRHYIATQGPMQETVKDFWRMIWQENSASIVMVTNLVEVGRVKCVRYWPDDTEVYGDIKVTLIETEPLAEYVIRTFTVQKKGYHEIRELRLFHFTSWPDHGVPCYATGLLGFVRQVKFLNPPEAGPIVVHCSAGAGRTGCFIAIDTMLDMAENEGVVDIFNCVRELRAQRVNLVQTEEQYVFVHDAILEACLCGNTAIPVCEFRSLYYNISRLDPQTNSSQIKDEFQTLNIVTPRVRPEDCSIGLLPRNHDKNRSMDVLPLDRCLPFLISVDGESSNYINAALMDSHKQPAAFVVTQHPLPNTVADFWRLVFDYNCSSVVMLNEMDTAQFCMQYWPEKTSGCYGPIQVEFVSADIDEDIIHRIFRICNMARPQDGYRIVQHLQYIGWPAYRDTPPSKRSLLKVVRRLEKWQEQYDGREGRTVVHCLNGGGRSGTFCAICSVCEMIQQQNIIDVFHIVKTLRNNKSNMVETLEQYKFVYEVALEYLSSF
modifications: N-glycans with β1,6 GlcNAc branches (tri- and tetra-antennary), more of them in GnT-V overexpressing cells; sites not mapped
notes: receptor protein tyrosine phosphatase rho (PTPRT), type IIB receptor-like PTP, endogenous in human SMMC-7721 and HT29 cells; One molecule for PTPRT of Mock and of GnT-V overexpressing cells: the two differ only in the amount of β1,6 GlcNAc branches on unmapped N-glycan sites; also called PTPRT (ρ); source: endogenous, SMMC-7721 and HT29 cells stably infected with pCDH-puro (Mock) or …
As to B1, the “intensity ratio of dimer to monomer, GnT-V cells against Mock cells” value was approximately 2 fold and the “stoichiometry N” value is 2.
